Positions count from the first letter of the chain named.
Tests used:
[1] = biological target: T1, hu-IL-36β (human IL-36β, N-terminally truncated active form R5-E157) (human); assay: cell-based or functional assay
T1 chain: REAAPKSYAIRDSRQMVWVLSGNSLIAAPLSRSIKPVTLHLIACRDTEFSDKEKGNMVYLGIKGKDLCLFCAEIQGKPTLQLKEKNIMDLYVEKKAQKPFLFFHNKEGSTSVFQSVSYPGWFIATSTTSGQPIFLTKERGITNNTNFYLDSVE

[2] = biological target: T2, cy-IL-36β (cynomolgus monkey IL-36β, W5-E157) (cynomolgus monkey); assay: ELISA on coated cy- and hu-IL-36β, yeast Fab supernatant; ratio of OD450
T2 construct: Purification tag cleaved off
T2 chain: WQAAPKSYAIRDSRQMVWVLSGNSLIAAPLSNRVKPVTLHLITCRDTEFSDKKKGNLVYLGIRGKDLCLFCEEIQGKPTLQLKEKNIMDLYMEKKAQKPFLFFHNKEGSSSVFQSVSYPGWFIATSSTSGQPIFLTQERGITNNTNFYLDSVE
Method: Cell supernatants from yeast clones of interest were tested for binding to human IL-36 by ELISA as described above. To compare the binding of these supernatants to human and cynomolgus monkey IL-36, IL-36 proteins were coated at 2.5 μg/mL on 96-well Nunc MaxiSorp plates (Thermo Fisher) and the plates blocked with 5% goat serum in PBS. Yeast supernatants were diluted 1:1 with PBST containing 1% w/v BSA and added to the ELISA plates for 1-1.5 hours with agitation. Bound Fab was detected by incubating the plates with F(ab′)2-HRP (Jackson ImmunoResearch). The ELISAs were developed for 3-10 minutes by addition of 50 μL/well of tetramethylbenzidine (TMB) microwell peroxidase substrate (Scytek Laboratories, Inc., Logan, Utah, USA) and enzymatic color development was stopped by acidification with 50 µL/well of 2 N H₂SO₄ (Sigma-Aldrich Corporation, St. Louis, Mo., USA). The optical density of the samples at a wavelength of 450 nm (OD450) was analyzed with a SpectraMax i3X plate reader (Molecular Devices LLC, San Jose, Calif., USA). To estimate the relative affinity of each clone for cynomolgus monkey IL-36 and human IL-36 in this assay, a ratio of OD450 (OD450_cyIL-36/OD450_huIL-36) was calculated for each clone and IL-36 cytokine.

[3] = biological target: T1, hu-IL-36β (human IL-36β, N-terminally …); assay: ELISA, yeast Fab supernatant, anti-Fab-HRP
[4] = biological target: T3, hu-IL-36α (human IL-36α, N-terminally truncated active form K6-F158) (human, UniProt Q9UHA7 6-158); assay: cell-based or functional assay
T3 sequence: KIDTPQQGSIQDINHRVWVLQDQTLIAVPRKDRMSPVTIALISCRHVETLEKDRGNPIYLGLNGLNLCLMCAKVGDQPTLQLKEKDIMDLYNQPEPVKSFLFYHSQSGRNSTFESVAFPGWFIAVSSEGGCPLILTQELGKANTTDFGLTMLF

[5] = biological target: T4, hu-IL-36γ (human IL-36γ, N-terminally truncated active form S18-D169) (human, UniProt Q9NZH8 18-169); assay: cell-based or functional assay
T4 sequence: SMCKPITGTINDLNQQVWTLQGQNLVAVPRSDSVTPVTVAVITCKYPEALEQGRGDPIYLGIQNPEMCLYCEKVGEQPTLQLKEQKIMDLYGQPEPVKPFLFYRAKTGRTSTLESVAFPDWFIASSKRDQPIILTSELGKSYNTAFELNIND

[6] = biological target: T3, hu-IL-36α (human IL-36α, N-terminally …); assay: cell-based or functional assay; remark: listed apart in the source
[7] = biological target: T5, cy-IL-36γ (cynomolgus monkey IL-36γ, S18-K168) (cynomolgus monkey, UniProt Q9NZH8 18-167 (human entry)); assay: cell-based or functional assay
T5 chain: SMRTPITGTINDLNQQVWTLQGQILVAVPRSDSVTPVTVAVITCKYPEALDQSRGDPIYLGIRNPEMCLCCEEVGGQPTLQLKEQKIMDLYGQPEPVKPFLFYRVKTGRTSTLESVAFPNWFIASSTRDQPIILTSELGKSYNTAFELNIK

[8] = biological target: T4, hu-IL-36γ (human IL-36γ, N-terminally …); assay: cell-based or functional assay; remark: listed apart in the source
[9] = biological target: T6, cy-IL-36α (cynomolgus monkey IL-36α, K6-F158) (cynomolgus monkey, UniProt Q9UHA7 14-158 (human entry)); assay: cell-based or functional assay
T6 chain: T3 sequence with I2S, D3E, T4M, Q7P, G8V, T24I, M34V, A40S, V74A

[10] = biological target: T1, hu-IL-36β (human IL-36β, N-terminally …); assay: cell-based or functional assay
[11] = biological target: T1, hu-IL-36β (human IL-36β, N-terminally …); assay: SPR (Biacore 8K), IgG captured on protein A chip, hu-IL-36β injected, 37°C
Method: (§1) FC1 was kept as a reference. Next, 3-fold serial dilutions of hu-IL-36β in HBS-P buffer from low (0.046 nM of hu-IL-36β) to high (100 nM of hu-IL-36β) were injected (flow rate: 30 μL/min) at either 37° C. The sensorgram was recorded and subject to reference and buffer subtraction before data analysis with the BIACORE® 8K Evaluation Software (GE Healthcare, Chicago, Ill., USA; version 1.1.1.7442). Association rates (kₒₙ) and dissociation rates (koff) were calculated using a simple one-to-one Langmuir binding model. The equilibrium dissociation constant (KD) was calculated as the ratio of koff/kₒₙ.

[12] = biological target: T1, hu-IL-36β (human IL-36β, N-terminally …); assay: SPR (Biacore 8K), IgG captured on protein A chip, 37°C
Method: as §1

[13] = biological target: T1, hu-IL-36β (human IL-36β, N-terminally …); assay: cell-based or functional assay
[14] = biological target: T2, cy-IL-36β (cynomolgus monkey IL-36β, …); assay: cell-based or functional assay

B1: mAb7.0 Fab (yeast clone culture supernatant) (Fab, V domains shown)
VH: QVQLVESGGGVVQPGRSLRLSCAASGFTFSSYGMHWVRQAPGKGLEWVAVISYGGSERYYADSVKGRFTISRDNSKNTLYLQMNSLRAEDTAVYYCAREPWYSSRGWTGYGFDVWGQGTLVTVSS
VL: EIVLTQSPGTLSLSPGERATLSCRASQSVSSNYLAWYQQKPGQAPKLLIYSASSLQSGVPSRFSGSGSGTDFTLTISSLQPEDFATYYCQQTYSYPPTFGQGTKVEIK
notes: Human Fab secreted by the yeast clone, not purified
% Inhibition, HEK-Blue IL-36R SEAP reporter assay [1]: 84%
ELISA OD450cyIL-36/OD450hu-IL-36 [2]: 3.9 ratio
ELISA OD450 [3]: 2.58 OD450

B2: mAb2.0 recombinant human IgG1 (antibody, V domains shown)
VH: QLQLQESGPGLVKPSETLSLTCTVSGGSISTSSYYWGWIRQPPGKGLEWIGSIYYTGNTYYNPSLKSRVTISVDTSKNQFSLKLSSVTAADTAVYYCARVRYGVGVPRYFDPWGQGTLVTVSS
VL: QSVLTQPPSVSGAPGQRVTISCTGSSSNIGAHYDVHWYQQLPGTAPKLLIYGNDNRPSGVPDRFSGSKSGTSASLAITGLQAEDEADYYCQSYDYSLSGYVFGGGTKLTVLG
IC50, HEK-Blue IL-36R SEAP reporter assay [4]: 5.7 nM
IC50, HEK-Blue IL-36R SEAP reporter assay [5]: 7.5 nM
IC50, IL-36-stimulated IL-8 secretion by HaCat cells [6]: 0.28 nM
IC50, IL-36-stimulated IL-8 secretion by primary human keratinocytes (HEKn) [6]: 0.33 nM
blocking potency relative to the natural antagonist IL-36Ra, HaCat IL-8 assay [6]: 100 fold
IC50, HEK-Blue assay with human IL1RL2 [7]: 1.71 nM
IC50, IL-36-stimulated IL-8 secretion by HaCat cells [8]: 1.23 nM
IC50, IL-36-stimulated IL-8 secretion by primary human keratinocytes (HEKn) [8]: 2.27 nM
blocking potency relative to the natural antagonist IL-36Ra, HaCat IL-8 assay [8]: 12 fold
IC50, HEK-Blue assay with human IL1RL2 [9]: 0.56 nM

B3: mAb6.0 Fab (yeast clone culture supernatant) (Fab, V domains shown)
VH: QLQLQESGPGLVKPSETLSLTCTVSGGSITSSNYYWGWIRQPPGKGLEWIGSIDYTGSTYYNPSLKSRVTISVDTSKNQFSLKLSSVTAADTAVYYCARGKYYETYLGFDVWGQGTLVTVSS
VL: QSVLTQPPSVSGAPGQRVTISCTGSSSNIGAGYDVHWYQQLPGTAPKLLIYGNTNRPSGVPDRFSGSKSGTSASLAITGLQAEDEADYYCQSYDISLSGWVFGGGTKLTVL
notes: as for B1
% Inhibition, HEK-Blue IL-36R SEAP reporter assay [1]: 86%
ELISA OD450cyIL-36/OD450hu-IL-36 [2]: 4 ratio
ELISA OD450 [3]: 2.34 OD450

B4: mAb6.0_2.0 IgG (mAb6.0 HC/mAb2.0 LC chimera) (antibody, V domains shown)
VH: B3 VH
VL: B2 VL
IC50, hu-IL-36β-stimulated IL-8 secretion by HaCat cells [10]: 12.7 nM
fold decrease in potency relative to mAb6.0 IgG, HaCat IL-8 assay [10]: 16 fold
Kd [11]: 6.7 nM
koff [11]: 0.00214 s⁻¹
kon [11]: 320000 M⁻¹ s⁻¹
fold lower affinity than mAb6.0 [12]: 16 fold

B5: mAb6.0 recombinant human IgG1 (antibody, V domains shown)
VH: B3 VH
VL: QESVLTQPPSVSGAPGQRVTISCTGSSSNIGAGYDVHWYQQLPGTAPKLLIYGNTNRPSGVPDRFSGSKSGTSASLAITGLQAEDEADYYCQSYDISLSGWVFGGGTKLTVLG
notes: Human IgG1; also called mAb6.0 IgG
IC50, HEK-Blue IL-36R SEAP reporter assay [13]: 0.64 nM
IC50, IL-36-stimulated IL-8 secretion by HaCat cells [10]: 0.082 nM
IC50, IL-36-stimulated IL-8 secretion by primary human keratinocytes (HEKn) [10]: 1.75 nM
IC50, hu-IL-36β-stimulated IL-8 secretion by HaCat cells [10]: 0.8 nM
blocking potency relative to IL-36Ra, HaCat IL-8 assay [10]: 1000 fold
IC50, HEK-Blue assay with human IL1RL2 [14]: 1.96 nM
Kd [11]: 0.42 nM
koff [11]: 0.000115 s⁻¹
kon [11]: 362000 M⁻¹ s⁻¹
